In a protein production outcome set (Wang et al. 2014):

Assay: label from the status in PepcDB records
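Further: failed if final PepcDB status was selected cloned or expressed and not failed if soluble or beyond.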

Q: For “MNEQQRLASQQVNSSTKKEEKDYSKYFESVYQPPSLKEAKKRGKEEVKIERDFGLPEEFRNFGTGRKFYIRTYGCQMNEHDTEVMAGIFTALGYEPTFSTEDADVVLLNTCAIRENAENKVFGELGHLKALKRRNPDLLIGVCGCMSQEESVVNKIMQKNQHVDMVFGTHNIHRLPYILKDAMFSKETVVEVWSKEGDVIENLPKVRRGDIKAWVNIMYGCDKFCTYCIVPYTRGKERSRRPEDIIQEIRHLAANGYKEITLLGQNVNAYGKDFEDIEYGLGDLMDELRKVDIARIRFTTSHPRDFDDHLIEVLGKGGNLVEHIHLPVQSGSTEMLKIMARKYSREHYLELVRKIKEAIPNAVLTTDIIVGFPNETDEQFEETMSLYREVGFDTAFTFIYSPREGTPAAKMKDNVPMEVKKERLQRLNALVNKLAIEKNDRYKGQIVEVLVDGESKNNPEVLAGYTRTNKLVNFVAPKSLIGQLVKVKVTDAKTWSLNGELVEEPIEVELEHHHHHH”, which protein production is on record?
A: failed

Q: For “MNESGFLIDTHAHIDGHDFAADFDAMLSRAWEAGLSHIVTVGADLESSRAAVALAGRHERIWCAVGIHPHDAGRVTDRCYDEIRTLAQGNPKVAAIGEIGLDFFRDRSPRDEQEQVFRRFIRLARELALPIVVHDRDAHERVMAILREEKARDVGGVLHCFSGDLAMARECVDMGFLISIPGTVTYPSNEALREVVRGVKIEHLLVETDCPYLTPVPHRGKRNEPAYVRLTAEKVAELKGLSLEDVGRITSLNARRLFGIGESDQAARIAYRIRNSLYLNITNRCSNRCSFCAKFDDYTVKGHHLRLDHEPDSAEVLAAVGEPGPVDEIVFCGFGEPMLRLDLIVEVARELKKRGFRIRINTDGQANLVHGRNVLPELQGLVDCISVSLNAADADTYARLCNTPFGTNGFNGICRFLEEARLYIPTVVATAVTVPGIDVAAVRALAESLGVEFREREFAEVGLEHHHHHH”, which protein production is on record?
A: not failed

Q: Which protein production does the source give for “MNFKKLSNAKVSVMAVVLSVGILSGYSALNKQVTLVVRGEERTISTFSSNVGDLLESQNISYDANDIVTLDENTKLSNGDKIEVIDVKEKTVVETKDIPFEVTVVEDGSLLKGDSKVKEEGKSGKSELIYKETYHNGKKVEKEFVKKVVKAEPVNKVVSKGTKVEMQVASSRGESSRRMASSSSSSSSSNNGKNMRVVATAYTGHSITATGTKPKWGTIAVDPKVIPYGTKVYIPQFDMVFTAEDCGGAIKGNKIDIYMNDSKTVYNWGRKTIDIRILK” here?
A: failed

Q: With “MNFLVIGSSLAFLLYILATLAIVTRLFHPKGPNITLVLSLATAAIIVHGFNDGLLFFSQDTINFNLPNVISLVSLIITIAVTLVSLRFKVNLLLPVIYGFTGLWQLVILFIPPIDSIPLVVEKVILLSHISFALIAYCVLIIATLYAFQVTYINLKLKSKNLTAVAHLPPLMQVEKQLFSILTVGTAILFISQIIGFVFLDGFLAKENAHKTILSLLSFAIYGLILWGHFEKGWRGHKVLVLMVSASALLTLAYFGSRFVKEFIL” as the sequence, how does the protein production read?
A: failed

Q: Which protein production does the source give for “MNFPLVLLILLVVTGGIWLLDYFVLRHKRVSGNTEEPWWVEYPKSFFPIILIVFSLRSFLVEPFKIPSGSMIPTLLIGDFILVNKYTYGIRLPVANLKIIDMNEPQRGEVMVFRFPEDPSIDYIKRVIGVPGDMVTYRNKQLSINDVPVQLEQGGDYKYIDGPAYIYTQRFKENMDGSEHDILINEDMPDIQLSAIHHFPNRENCTFDRTGFSCKVPEGNYFTLGDNRDGSSDSRYWGFVPENHIVGKAFLIWWNFNDLSRIGTLIK” here?
A: failed

Q: Which protein production does the source give for “MNFRTGQPSDAAALAAISIEVWLGTYMRKGVSAFFAEYALNEFTSTKMASLLKDPNEHVIVSENEGGIDAFIRLGQGRAAPVSGCSTLEIATLYVQPRHHRRGLGRALLEQGLAYARQASAPSVWLTTNSENAPAIAFYLEQGFEKVGTTHFNIGDQ” here?
A: not failed

Q: Which protein production does the source give for “MNFSLVHLRENVRRVSVTVAIGAGALLISGPFFTAHTAEATETYVLAESPEFYQDNVTDYTGQISSSDITNIQAAIDDVKASEQKVIFVVFLSSFDGVDPETWTQQALQANGGGNVLIYALAPEERQYGIQGGTQWTDAELDAANNAAFQALSQEDWAGSALALAESVGSSSSSSSGSSSSSDFSGAWLAAAGVGTVAAGGGIWAYSRSRKKKTSAATLEDAREIDPRDTNRLMQLPMETLEHLAQEELTSTDDSIRRGKEELAIATSEFGPERTRSFNRAMNHSTGTLQKAFEIQQRLNDSIPESEAERQSMLVEIISSCGQADDALDAEAQNFADMRNLLINAGSKLDALTQKSVDLRTRLPKAQETLAGLRTRYSAEVLESIDDNVDLASASLDEAEEVLPQAYEIESMPAGEQGGLIDAIRHIEHAITTADKLLAGVEHADENISTAKANVADLIQEISDEINEAGQLKQSAGADGARADWASLDDAVRAASAALITASADAEKDPLGTYTELVDVDSALDTQLDTLRATAADQARQLRVFDQQLQSARSQIQKAEDLISTRGRIVKSEARTHLANAQKLYAMAQQNRTRDTRAGIDYGRQAAVAAQRASKSAQNDITTYNNRHNSGGGTTGAIVTGMVINSILNSGRGGGFGGGGGFGGGGGGFSGGGGGGGGFRGGRF” here?
A: failed

Q: With “MNFVTFQFVVFLVITVIVFMMMSPYYRKYFILLCSYFFYGTWSVPLISVILFSTSVDYYLGKKIHESHSQTHKKLYLTLSILVNCSILVYFKYMNFFISSIDAIGFSLGATQLLLNPMHIILPLGVSFYTFEAISYIVDIYRGEKPASSWLNYNFYIMYFPHLISGPIVRYKELHAQYESKIELPETSRLKEGFQLLLYGFIFKLVIADSMASISDPLFDKYQTIGHLESWLASIAFTIQIYFDFLGYTHIARGVSLFFNIKLPVNFNHPYNARNISEFWQRWHITLSLWIRDYLYIPLGGNRGRLYQTVNNLLITMFIAGLWHGASWNYAIWGTYHGCLLAVYHVFRFYYIKRNLQTENQLMKIGSIIMTYSLVVIGWVIFRSTSFEQAFTILGKMYDIPGFVQEFAMNQRASAYTDSLFYLVGMFALCFIGPTFKSIETKILSAVQPFWIKKWLYSLSIFTVLIFMFSPVKPFIYFVF” as the sequence, how does the protein production read?
A: failed

Q: With “MNFYWFDAFILGFTLLLGLKGIINGLIKEIFGLLGIIGGVFIASKYATQAAEFIQSTFYKIENQSLAGFAGFLAILIIFWIVCLLVGNFLSRLIKLSGLGFLDRIGGFIFGGAKIFLIFAILVFCVARIDFLNDKLDNFAKNSYTLNLLKETGSFIMNQPLTENSLDHASEKLQDIVSDLNNTQKGE” as the sequence, how does the protein production read?
A: failed

Q: For “MNGFSQLEGLRGHPSVVRVIGHRGARGVMPENTLEGFAFTLAAGVRALEFDVVMTADGVPVVTHNHHLANAMTRDGQGHWLTGAERQVAEMTYAEIRALDVGGLDGRTVYGRRFPDQAFLTGIHVPRLGELLDLCAGYGDQAPYLLLELKSDPALMHDHAARAEMVAAVLADVRRYRMEPRTVMHSFDWALLGECRRQAPDLPTSYLSQLPENADDPGEDSAKPVGPDYDRMTESLPQAVASAGGQLWCPYFLDVTPELVAEAHDLGLIVLTWTVNEPEDIRRMATTGVDGIVTDYPGRTQRILIDMGLSWT”, which protein production is on record?
A: not failed

Q: For “MNGHAFFFAGVRLTALPSGALWWPAERLLCVSDLHLGKAERLARRGGTLLPPYETQATLARLEADLEATGAERVLCLGDSFDDGAAADGLAEPERLWLRRLMTGRDWIWILGNHD”, which protein production is on record?
A: failed

Q: With “MNGQAKTISASAKGIPQPSNNNFVDFTMSYNGTTKVMSITYGGQTWTQNVSSFIGTNQAMSFSIAASTGAQMNLQQLRNVNFTYTVAQGTVIANYVDEQGNTIAQQETTSGDIDTPYVTSQKTIPGYTFKASNGAATSGNYAANDQTVNYVYTRNQGSIDVTYIDQTTGQTLSKKDLSGGTGDSSNYTTTDTIKSYTDAGYELVSDNYPSGGTVFTDTAQHYVVNLKQKLVVSSEQKQVNETIQYVYEDGSKAADDYNAPPLNFTRSVTTNQVTGEKTYGDWQAQNGDSFGEVVSPTIKGETADQLKIDAISGITANSADIQKKVVYKRNQGTIDVTYIDETTGQVLTKKDLSGGTDDPSNYTTADDIKSYTDKGYELVSDDYPSGGTVFTDEPQHYVVKLKHGLTESTDKKAVNQVIHYVYEGGGEAATDHNATVDFSRTITTDRVTNDKTYGDWTADNGDSFASVTSPVIDGYTADQLKVSEMTGITADTEDISVTVTYTRNQGTIDITYIDQTTGQTLSKKDLSGGTGDDSGYTTADTIKSYTDKGYELISDDYPEDGTKFADDPQHYIVRLKHGLTEVTENKTVNQVIHYVYEGGGEAATDHNATVVFSQTITTDKVTGEKTYSDWTADNGDSFASVTSPVIDGYTADQLKVSEMTGITVDTEDISVTVTYTRNQGTIDVTYIDETTGKILTTKDLSGGTGDDSGYTTADTIKSYTDKGYELVSNDYPEDGTKFADDPQHYIVRLKHGTVVETENKSVNEVIHYVYDNGDKAADNYKATIVFSRTITTDKVTGEKTYSDWTADNGGRFAAVLSPIIKDYIASQLKVDEMTGITVDTADIERIVVYHKVPAGIIVPPVHPDKPSQPSNNQSKIPTAKAVKDSKPTDVLPSTGDSQKSQIVLTLLGIMAVIISPLALLLRRRKQ” as the sequence, how does the protein production read?
A: failed

Q: For “MNGVELTLTGAEVLLPGGPARRDLCLSGGQVVDAPAGRQVDLSGYLVLPGIVDLHGDGFERHMAPRRGAMKEMGEGVVAAEAELAANGITTAVLAQFWSWEGGLRGPDFAAGVFQAIRQVQGSLVTDLIPQLRFETHLLEDYAALPDRLAEWQVPYVVFNDHLPHDRLAEGRKPPRLAGQALKAGRSPEAHLALLQALHANGPQVPAALDKLCAELHRRGVRMGSHDDHSAEDCATGQGRGLTISEFPETLEAAEATRASGGHVILGSPNVVRGGSHKGNVSALDLITMGLCDALASDYHYPSPRRAALMLVRTGLLDLAAAWALVSSGPARVLGLDDRGELAPGKRADLVILDAQSHRVAATFAAGRVSYMSGDVATRFLA”, which protein production is on record?
A: failed

Q: Which protein production does the source give for “MNGYIINIRYQQMGRVIYMFFFAIFGIQDKNKHIGNCNNIVCPSCGRLSMYEVYKYYKYFHIFFLPIFKWDVRYIVKTSCCGCLYELDPLVGKEFEKNPSTEIREENLQRIDRYSPFKYCSNCRTEVPVEYSYCPYCGERLLEHHHHHH” here?
A: failed

Q: With “MNGYRRKNMRLINTTSSHQHLVKNQLKHTDATLVETYSAGNTDVIFTQAPKHYELLISNKHRAIKDNEIETIREFFLKRKINKNIILLDQLKTLHTANLIEISIPIAD” as the sequence, how does the protein production read?
A: failed

Q: For “MNHAITMGIFWHLIGAASAACFYAPFKKVKHWSWETMWSVGGIVSWLILPWAISATLLPDFWAYYRSFSASTLLPVFLFGAMWGIGNINYGLTMRYLGMSMGIGIAIGITLIVGTLMTPIINGQFAVLMHTQGGQMTLLGVLVAVIGVGIVTRAGQLKERKMGIKAEEFNLKKGLLLAVMCGIFSAGMSFAMNAAKPMHDAAAALGVDPLYAALPSYVVIMGGGALVNLGFCFIRLAKVKNLSVKADFSLAKPLIISNLLLSALGGLMWYLQFFFYAWGHASIPAQYDYMSWMLHMSFYVLCGGVVGLVLKEWNNAGRRPVSVLSLGCVVIIIAANIVGLGMAS”, which protein production is on record?
A: failed

Q: For “MNHPAHHGPTVTPKRRHPDSTGAAPVGIVIATRNRRASLAVTVRNLLALPERPDVLVVDNASTDDTRAMLARDFPQVRVLPLPYNRGALARTHGVRALDTPYVAFSDDDSWWAPGALGAAARHFDDHPRLGLLSARTLVGPGDAADPLNDLLADSPLGTATDLPGTQVLGFLGCAAVARRTAYLDAGGYHPLLFFGGEETLLAYDLAARGWGVTHCPDVIAHHHPHPRPRTGRPAVVRRNALLTAWLRRPLPHALARTRALAADARRDPHARHALRETLTRLPAALRARRPLPPHVERAARLLDGADGPDGPGGAVSLEHHHHHH”, which protein production is on record?
A: not failed

Q: Which protein production does the source give for “MNHPDLAGKVAIVTGAGAGIGLAVARRLADEGCHVLCADIDGDAADAAATKIGCGAAACRVDVSDEQQIIAMVDACVAAFGGVDKLVANAGVVHLASLIDTTVEDFDRVIAINLRGAWLCTKHAAPRMIERGGGAIVNLSSLAGQVAVGGTGAYGMSKAGIIQLSRITAAELRSSGIRSNTLLPAFVDTPMQQTAMAMFDGALGAGGARSMIARLQGRMAAPEEMAGIVVFLLSDDASMITGTTQIADGGTIAALW” here?
A: not failed
